Measured values: paper PMC4279225 (Molecular Biology of the Cell, 2015)

Key:
[1] = target: T1, Recombinant wild-type septin complex Pnut-Sep2-Sep1 (His tag removed) (Drosophila melanogaster, UniProt P40797 1-539; P54359 1-419; P42207 1-361); assay: negative-stain EM with Ni-NTA Nanogold labelling
T1 sequence (looked up) 1: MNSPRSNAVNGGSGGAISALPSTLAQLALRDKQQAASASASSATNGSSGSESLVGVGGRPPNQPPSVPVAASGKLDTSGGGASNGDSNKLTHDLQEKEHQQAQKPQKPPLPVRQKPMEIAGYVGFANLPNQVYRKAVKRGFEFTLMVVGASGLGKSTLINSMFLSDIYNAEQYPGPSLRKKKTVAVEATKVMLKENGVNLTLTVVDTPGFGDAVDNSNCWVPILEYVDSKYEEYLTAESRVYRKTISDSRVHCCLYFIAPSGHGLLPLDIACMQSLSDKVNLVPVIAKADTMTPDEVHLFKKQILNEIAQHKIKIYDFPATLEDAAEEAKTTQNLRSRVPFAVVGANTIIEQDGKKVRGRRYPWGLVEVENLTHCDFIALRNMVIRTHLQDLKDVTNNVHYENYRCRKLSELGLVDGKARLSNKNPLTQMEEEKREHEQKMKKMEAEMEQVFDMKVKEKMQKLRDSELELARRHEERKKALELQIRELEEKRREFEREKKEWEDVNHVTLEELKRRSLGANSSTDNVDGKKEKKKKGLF
T1 sequence (looked up) 2: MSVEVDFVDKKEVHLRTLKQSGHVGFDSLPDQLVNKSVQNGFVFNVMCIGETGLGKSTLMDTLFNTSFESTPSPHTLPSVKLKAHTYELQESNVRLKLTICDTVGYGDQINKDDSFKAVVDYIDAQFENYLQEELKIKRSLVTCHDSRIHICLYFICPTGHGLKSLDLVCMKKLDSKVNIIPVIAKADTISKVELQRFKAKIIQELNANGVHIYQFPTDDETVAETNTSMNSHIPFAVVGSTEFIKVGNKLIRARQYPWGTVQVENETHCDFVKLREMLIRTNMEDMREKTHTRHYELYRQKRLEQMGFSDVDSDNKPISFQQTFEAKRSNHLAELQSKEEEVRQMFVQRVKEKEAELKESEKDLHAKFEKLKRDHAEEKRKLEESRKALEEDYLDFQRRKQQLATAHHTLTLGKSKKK
T1 sequence (looked up) 3: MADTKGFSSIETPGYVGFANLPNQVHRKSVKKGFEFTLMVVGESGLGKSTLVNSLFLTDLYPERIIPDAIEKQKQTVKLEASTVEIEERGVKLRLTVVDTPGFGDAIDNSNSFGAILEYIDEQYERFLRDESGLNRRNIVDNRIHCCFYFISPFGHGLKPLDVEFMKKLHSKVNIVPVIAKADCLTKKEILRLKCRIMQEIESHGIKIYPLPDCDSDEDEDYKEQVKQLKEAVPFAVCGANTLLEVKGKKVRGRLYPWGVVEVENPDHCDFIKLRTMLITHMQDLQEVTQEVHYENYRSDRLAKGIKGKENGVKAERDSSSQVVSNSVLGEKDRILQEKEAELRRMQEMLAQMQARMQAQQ

GST-Orc6, wild type = target: T2, GST-Orc6, wild type (Drosophila, UniProt Q9Y1B2 1-257); assay: pull-down
T2 sequence (looked up): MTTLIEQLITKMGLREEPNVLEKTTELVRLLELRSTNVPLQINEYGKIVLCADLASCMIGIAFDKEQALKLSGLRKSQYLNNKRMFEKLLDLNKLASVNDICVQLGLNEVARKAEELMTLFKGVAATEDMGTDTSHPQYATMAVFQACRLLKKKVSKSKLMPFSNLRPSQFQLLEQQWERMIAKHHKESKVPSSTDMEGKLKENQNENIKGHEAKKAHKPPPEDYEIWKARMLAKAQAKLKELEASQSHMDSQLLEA

His-GFP-Orc6, wild type = target: T3, His-GFP-Orc6, wild type (Drosophila, UniProt Q9Y1B2 1-257); assay: fluorescence polarisation
T3 sequence (looked up): T2 sequence (looked up)

SEC = target: the molecule itself; assay: SEC

B1: His-Orc6 Δ(1–186), N-terminus deletion (domain or fragment, Drosophila, UniProt Q9Y1B2 187-257, looked up)
chain: KESKVPSSTDMEGKLKENQNENIKGHEAKKAHKPPPEDYEIWKARMLAKAQAKLKELEASQSHMDSQLLEA
binding result [1]: binds

B2: His-Orc6 Δ(200–257), Orc6 with truncated C-terminus (domain or fragment, Drosophila, UniProt Q9Y1B2 1-199, looked up)
chain: MTTLIEQLITKMGLREEPNVLEKTTELVRLLELRSTNVPLQINEYGKIVLCADLASCMIGIAFDKEQALKLSGLRKSQYLNNKRMFEKLLDLNKLASVNDICVQLGLNEVARKAEELMTLFKGVAATEDMGTDTSHPQYATMAVFQACRLLKKKVSKSKLMPFSNLRPSQFQLLEQQWERMIAKHHKESKVPSSTDMEG
binding result (GST-Orc6, wild type): binds | binding result (His-GFP-Orc6, wild type): binds | binding result (SEC): binds

B3: His-Orc6, wild type, Orc6-wt (1–257) (natural protein, Drosophila, UniProt Q9Y1B2 1-257, looked up)
chain: T2 sequence (looked up)
stoichiometry N [1]: 2.26 ± 0.34 Nanogold particles (His-Orc6 molecules) per septin hexamer | stoichiometry N (SEC): 2
